Laboratory results as given in publication PMC10448441.

Biological target: T1, Integrin beta3 (CD61, GP3A), overexpressed on A549-ITGB3-OE cells (Homo sapiens) (UniProt P05106)
T1 sequence: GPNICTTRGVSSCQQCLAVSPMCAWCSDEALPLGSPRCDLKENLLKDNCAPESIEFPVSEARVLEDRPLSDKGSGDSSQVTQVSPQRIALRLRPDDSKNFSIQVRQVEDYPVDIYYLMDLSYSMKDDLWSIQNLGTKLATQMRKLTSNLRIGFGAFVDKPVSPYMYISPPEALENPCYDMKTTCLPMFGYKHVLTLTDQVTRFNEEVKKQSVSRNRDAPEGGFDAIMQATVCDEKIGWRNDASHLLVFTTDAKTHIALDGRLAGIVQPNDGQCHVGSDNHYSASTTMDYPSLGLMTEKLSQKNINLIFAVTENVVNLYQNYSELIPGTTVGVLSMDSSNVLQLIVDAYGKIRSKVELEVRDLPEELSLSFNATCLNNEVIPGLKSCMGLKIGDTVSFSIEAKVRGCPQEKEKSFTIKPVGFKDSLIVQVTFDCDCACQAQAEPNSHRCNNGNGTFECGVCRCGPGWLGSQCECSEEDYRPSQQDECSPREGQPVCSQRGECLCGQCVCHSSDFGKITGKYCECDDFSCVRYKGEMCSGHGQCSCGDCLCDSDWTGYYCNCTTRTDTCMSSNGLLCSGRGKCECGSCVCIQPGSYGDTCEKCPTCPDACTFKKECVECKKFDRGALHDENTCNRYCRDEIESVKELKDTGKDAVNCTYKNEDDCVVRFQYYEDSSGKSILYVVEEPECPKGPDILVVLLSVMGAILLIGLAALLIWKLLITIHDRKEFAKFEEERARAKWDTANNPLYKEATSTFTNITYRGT
Assay: flow cytometry
Conditions: live A549-ITGB3-OE cells, FAM label; PBS with 5 mM MgCl2, 4.5 g/L glucose, 100 ug/mL tRNA; 4 C, 30 min; pH not stated; pull-down on ice 30 min

Row | Sequence | Kd [nM]
1 | TTCAGCACTCCACGCATAGCTCCACGATGTAGGATCCACATGAGCGCTCCTGTTACCCTGCCTATGCGTGCTACCGTGAA [S10] | 71.4
2 | TCCACGATGTAGGATCCACATGAGCGCTCCTGTTACCCTG [S10yh2] | 61.2
